# Measured values from patent US20110263454A1, “Methods of Identifying Functional Characteristics of Promoters, Transcription Modifying Proteins and Transcription Modulating Agents” (Salk Institute for Biological Studies, priority 2008, published 2011).
# B1: RORg: RAR-related Orphan Receptor γ (NR1F3), cDNA driver (protein, UniProt P51449 1-518, looked up)
# Nuclear receptor ROR-gamma: MDRAPQRQHRASRELLAAKKTHTSQIEVIPCKICGDKSSGIHYGVITCEGCKGFFRRSQRCNAAYSCTRQQNCPIDRTSRNRCQHCRLQKCLALGMSRDAVKFGRMSKKQRDSLHAEVQKQLQQRQQQQQEPVVKTPPAGAQGADTLTYTLGLPDGQLPLGSSPDLPEASACPPGLLKASGSGPSYSNNLAKAGLNGASCHLEYSPERGKAEGRESFYSTGSQLTPDRCGLRFEEHRHPGLGELGQGPDSYGSPSFRSTPEAPYASLTEIEHLVQSVCKSYRETCQLRLEDLLRQRSNIFSREEVTGYQRKSMWEMWERCAHHLTEAIQYVVEFAKRLSGFMELCQNDQIVLLKAGAMEVVLVRMCRAYNADNRTVFFEGKYGGMELFRALGCSELISSIFDFSHSLSALHFSEDEIALYTALVLINAHRPGLQEKRKVEQLQYNLELAFHHHLCKTHRQSILAKLPPKGKLRSLCSQHVERLQIFQHLHPIVVQAAFPPLYKELFSTETESPVGLSK
# B2: RVRb: Rev-Erb β (NR1D2, alternative name RVR), cDNA driver (protein, UniProt Q14995 1-579, looked up)
# Nuclear receptor subfamily 1 …: MEVNAGGVIAYISSSSSASSPASCHSEGSENSFQSSSSSVPSSPNSSNSDTNGNPKNGDLANIEGILKNDRIDCSMKTSKSSAPGMTKSHSGVTKFSGMVLLCKVCGDVASGFHYGVHACEGCKGFFRRSIQQNIQYKKCLKNENCSIMRMNRNRCQQCRFKKCLSVGMSRDAVRFGRIPKREKQRMLIEMQSAMKTMMNSQFSGHLQNDTLVEHHEQTALPAQEQLRPKPQLEQENIKSSSPPSSDFAKEEVIGMVTRAHKDTFMYNQEQQENSAESMQPQRGERIPKNMEQYNLNHDHCGNGLSSHFPCSESQQHLNGQFKGRNIMHYPNGHAICIANGHCMNFSNAYTQRVCDRVPIDGFSQNENKNSYLCNTGGRMHLVCPMSKSPYVDPHKSGHEIWEEFSMSFTPAVKEVVEFAKRIPGFRDLSQHDQVNLLKAGTFEVLMVRFASLFDAKERTVTFLSGKKYSVDDLHSMGAGDLLNSMFEFSEKLNALQLSDEEMSLFTAVVLVSADRSGIENVNSVEALQETLIRALRTLIMKNHPNEASIFTKLLLKLPDLRSLNNMHSEELLAFKVHP
# B3: RORa: RAR-related Orphan Receptor α (NR1F1), cDNA driver (protein, UniProt P35398 1-523, looked up)
# Nuclear receptor ROR-alpha: MESAPAAPDPAASEPGSSGADAAAGSRETPLNQESARKSEPPAPVRRQSYSSTSRGISVTKKTHTSQIEIIPCKICGDKSSGIHYGVITCEGCKGFFRRSQQSNATYSCPRQKNCLIDRTSRNRCQHCRLQKCLAVGMSRDAVKFGRMSKKQRDSLYAEVQKHRMQQQQRDHQQQPGEAEPLTPTYNISANGLTELHDDLSNYIDGHTPEGSKADSAVSSFYLDIQPSPDQSGLDINGIKPEPICDYTPASGFFPYCSFTNGETSPTVSMAELEHLAQNISKSHLETCQYLREELQQITWQTFLQEEIENYQNKQREVMWQLCAIKITEAIQYVVEFAKRIDGFMELCQNDQIVLLKAGSLEVVFIRMCRAFDSQNNTVYFDGKYASPDVFKSLGCEDFISFVFEFGKSLCSMHLTEDEIALFSAFVLMSADRSWLQEKVKIEKLQQKIQLALQHVLQKNHREDGILTKLICKVSTLRALCGRHTEKLMAFKAIYPDIVRLHFPPLYKELFTSEFEPAMQIDG
# B4: RARa: Retinoic acid receptor α (NR1B1), nuclear hormone receptor cDNA driver (protein, UniProt P10276 1-462, looked up)
# Retinoic acid receptor alpha: MASNSSSCPTPGGGHLNGYPVPPYAFFFPPMLGGLSPPGALTTLQHQLPVSGYSTPSPATIETQSSSSEEIVPSPPSPPPLPRIYKPCFVCQDKSSGYHYGVSACEGCKGFFRRSIQKNMVYTCHRDKNCIINKVTRNRCQYCRLQKCFEVGMSKESVRNDRNKKKKEVPKPECSESYTLTPEVGELIEKVRKAHQETFPALCQLGKYTTNNSSEQRVSLDIDLWDKFSELSTKCIIKTVEFAKQLPGFTTLTIADQITLLKAACLDILILRICTRYTPEQDTMTFSDGLTLNRTQMHNAGFGPLTDLVFAFANQLLPLEMDDAETGLLSAICLICGDRQDLEQPDRVDMLQEPLLEALKVYVRKRRPSRPHMFPKMLMKITDLRSISAKGAERVITLKMEIPGSMPPLIQEMLENSEGLDTLSGQPGGGGRDGGGLAPPPGSCSPSLSPSSNRSSPATHSP
# B5: RARb: Retinoic acid receptor β (NR1B2), nuclear hormone receptor cDNA driver (protein, UniProt P10826 1-455, looked up)
# Retinoic acid receptor beta: MTTSGHACPVPAVNGHMTHYPATPYPLLFPPVIGGLSLPPLHGLHGHPPPSGCSTPSPATIETQSTSSEELVPSPPSPLPPPRVYKPCFVCQDKSSGYHYGVSACEGCKGFFRRSIQKNMIYTCHRDKNCVINKVTRNRCQYCRLQKCFEVGMSKESVRNDRNKKKKETSKQECTESYEMTAELDDLTEKIRKAHQETFPSLCQLGKYTTNSSADHRVRLDLGLWDKFSELATKCIIKIVEFAKRLPGFTGLTIADQITLLKAACLDILILRICTRYTPEQDTMTFSDGLTLNRTQMHNAGFGPLTDLVFTFANQLLPLEMDDTETGLLSAICLICGDRQDLEEPTKVDKLQEPLLEALKIYIRKRRPSKPHMFPKILMKITDLRSISAKGAERVITLKMEIPGSMPPLIQEMLENSEGHEPLTPSSSGNTAEHSPSISPSSVENSGVSQSPLVQ
# B6: RVRa: Rev-Erb α (NR1D1), cDNA driver (protein, UniProt P20393 1-614, looked up)
# Nuclear receptor subfamily 1 …: MTTLDSNNNTGGVITYIGSSGSSPSRTSPESLYSDNSNGSFQSLTQGCPTYFPPSPTGSLTQDPARSFGSIPPSLSDDGSPSSSSSSSSSSSSFYNGSPPGSLQVAMEDSSRVSPSKSTSNITKLNGMVLLCKVCGDVASGFHYGVHACEGCKGFFRRSIQQNIQYKRCLKNENCSIVRINRNRCQQCRFKKCLSVGMSRDAVRFGRIPKREKQRMLAEMQSAMNLANNQLSSQCPLETSPTQHPTPGPMGPSPPPAPVPSPLVGFSQFPQQLTPPRSPSPEPTVEDVISQVARAHREIFTYAHDKLGSSPGNFNANHASGSPPATTPHRWENQGCPPAPNDNNTLAAQRHNEALNGLRQAPSSYPPTWPPGPAHHSCHQSNSNGHRLCPTHVYAAPEGKAPANSPRQGNSKNVLLACPMNMYPHGRSGRTVQEIWEDFSMSFTPAVREVVEFAKHIPGFRDLSQHDQVTLLKAGTFEVLMVRFASLFNVKDQTVMFLSRTTYSLQELGAMGMGDLLSAMFDFSEKLNSLALTEEELGLFTAVVLVSADRSGMENSASVEQLQETLLRALRALVLKNRPLETSRFTKLLLKLPDLRTLNNMHSEKLLSFRVDAQ
# Assays:
# hMyoD promoter = assay: NHR-promoter luciferase screen, hMyoD promoter; assay type: cell-based, human; settings: for Luc. act., normalized to lacZ / Normalized Luc. act., normalized to control: MyoD promoter reporter, co-transfected HR, without or with its ligand; for Normalized Luc. act., normalized to control: relative to control; for luciferase activity normalized to lacZ activity and to a control, hMyoD: hMyoD promoter-luciferase, CV-1 cells, NHR +/- ligand, control = 1.00
# Experimental: (§1) The use, feasibility, and reproducibility of the functional NHR-promoter screen in a 48-well format have been tested validated. Briefly, there were co-expressed 50 ng of each NHR/NHR homodimer or NHR/RXR heterodimer with 100 ng promoter/luciferase construct and 50 ng of LacZ (as a control for transfection efficiency) in CV-1 cells using Fugene HD (Roche) as a transfection reagent (alternatively or additionally, a CMV-YFP construct can be used as a transfection control). Each of the nuclear hormone receptors that were used in these experiments was cloned into a pcDNA3.1 vector and comprised a C-terminally linked V5H6 tag. Twenty-four hours after transfection, appropriate ligands were added, where applicable, (see Table 5 for various ligands and concentrations and after 48 hrs, samples were assayed for luciferase and LacZ activity. To measure for luciferase activity 15 ul of sample was added to 30 ul of luciferase buffer (20 mM tricine, 1.07 mM MgCarbonate, 2.67 mM MgSulfate, 0.1 mM Naz-EDTA, 5 mM DTT, 5 mM ATP, 0.15 mg/ml CoA, 0.5 mM Luciferin), mixed briefly, and run in a Perkin Elmer Victor 5 luminometer. Thus, the functional NHR-promoter screen was used to observe the transcriptional activity of 29 promoters from various physiological pathways including inflammation, lipid and sugar metabolism, cholesterol transport, xenobiotic metabolism, and circadian rhythm.
# (§2) The promoters that facilitate transcription of the indicated gene products that were tested using the protocols described herein are listed in the first row of the table. The nuclear hormone receptors and, where applicable, ligands that were assayed for their transcriptional effects on the promoters are listed in the first column of the table. The data represent the luciferase activity of each sample normalized to both the lacZ activity of that sample and to a control, e.g., no NHR or ligand, as customary in the art. As described previously, these normalizations allow the transcriptional activity of each reporter cell to be compared to other samples.
# (§3) Tables 7-40 show the transcriptional effects of the hormone receptors, and, where applicable, ligands (orphan receptors are screened without ligand), on each individual promoter. […] The control data of each table are shown in their last rows.
# MCP-1 promoter = assay: NHR-promoter luciferase screen, MCP-1 promoter; assay type: cell-based; settings: for Normalized Luc. act., normalized to control / Luc. act., normalized to lacZ: MCP-1 promoter reporter; for Normalized Luc. act., normalized to control: HR without or with its ligand, relative to control; for Luc. act., normalized to lacZ: hormone receptor (HR) without or with its ligand; for mMCP-1 promoter reporter activity: transcription factor +/- ligand, control = 1.00
# Experimental: as §1, §2, §3
# mDio1 promoter = assay: NHR-promoter luciferase screen, mDio1 promoter; assay type: cell-based, mouse; settings: for Luc. act., normalized to lacZ / Normalized Luc. act., normalized to control: Dio1, HR component without or with its ligand; for mDio1 promoter reporter activity: transcription factor +/- ligand, control = 1.00
# Experimental: as §1, §2, §3
Molecule,"Luc. act., normalized to lacZ (hMyoD promoter)","Normalized Luc. act., normalized to control (hMyoD promoter)","luciferase activity normalized to lacZ activity and to a control, hMyoD (hMyoD promoter)","Normalized Luc. act., normalized to control (MCP-1 promoter)","Luc. act., normalized to lacZ (MCP-1 promoter)",mMCP-1 promoter reporter activity (MCP-1 promoter),"Luc. act., normalized to lacZ (mDio1 promoter)","Normalized Luc. act., normalized to control (mDio1 promoter)",mDio1 promoter reporter activity (mDio1 promoter)
B1,86.5,1.4,1.36,2.8,301.2,2.81,5.7,1.3,1.29
B2,80.9,1.3,1.28,1.6,170.4,1.59,8.8,2.0,1.97
B3,47.3,0.7,0.75,1.4,150.7,1.41,2.1,0.5,0.47
B4,99.3,1.6,1.57,1.7,182.3,1.70,7.4,1.7,1.66
B5,123.5,1.9,1.95,1.8,197.0,1.84,6.8,1.5,1.54
B6,75.0,1.2,1.18,1.4,149.4,1.40,5.7,1.3,1.27
